For this experiment, the target named is purified muscle actin filaments (UniProt P68135 1-377).

B1: recombinant Rng2p calponin homology domain (domain or fragment)
chain: MDVNVGLSRLQSQAGAPVGTKGSNTRLAAKQRETLQAYDYLCRVDEAKKWIEECLGTDLGPTSTFEQSLRNGVVLALLVQKFQPDKLIKIFYSNELQFRHSDNINKFLDFIHGIGLPEIFHFELTDIYEGKNLPKVIYCIHALSYFLSMQDLAPPLIKSDENLSFTDEDVSIIVRRLRQSNVILPNFKAL
Broadly, the Kd is the equilibrium constant for the complex coming apart. Low readings indicate tighter binding, high ones weaker binding. Take B1: the Kd was around 20 µM.

Source of the values: article PMC3681696 (Molecular Biology of the Cell, 2013).
